Source: the DeepSol protein solubility set

test: soluble on expression in E. coli; label from the status in PepcDB or PDB records

| Sequence | soluble on expression in E. coli |
| --- | --- |
| MSLDKGTVDGRLYQLFKTCIQGINSPLSSVALRSDFYILANHYLSRVLSDQVGSEKVLQDLRLGSKKLVEIIWNDVVYGEGTSRVTGILLLDSLIQLANRSKENFILDSLMKTTRLLLIIRSLKNTDALLNSTTEHINIDDLLYELTAFKATVFFLIRVAETRGGASALIENNLFRIIAELSFLKVDPDLGLDLMFDEVYVQNSKFLKVNVTLDNPLLVDKDANGVSLFELIVPIFQLISAVLVSMGSSNKAVVQTVKGLLNTYKRLVIGIFKRDLLREKEDKKNSSDPNNQSLNEMVKLIVMLCTLTGYQNNDEGHHHHHH | not soluble |
| MSLDKRLFLDPDTAIERLQRLQQALEMGVSSLMALVTTDWRCYGYMERHINEIRTAVDKVELFLKEYLHFVKGAVANAACLPELILHNKMKRELQRVEDSHQILSQTSHDLNECSWSLNILAINKPQNKCDDLDRFVMVAKTVPDDAKQLTTTINTNAEALFRPGPGSLHLKNGPESIMNSTEYPHGGSQGQLLHPGDHKAQAHNKALPPGLSKEQAPDCSSSDGSERSWMDDYDYVHLQGKEEFERQQKELLEKENIMKQNKMQLEHHQLSQFQLLEQEITKPVENDISKWKPSQSLPTTNSGVSAQDRQLLCFYYDQCETHFISLLNAIDALFSCVSSAQPPRIFVAHSKFVILSAHKLVFIGDTLTRQVTAQDIRNKVMNSSNQLCEQLKTIVMATKMAALHYPSTTALQEMVHQVTDLSRNAQLFKRSLLEMATEGHHHHHH | soluble |
| MSLDLFRSEPVAQPLAARLRPANLDEYVGQEHLLARGKPLREALEQGALHSMIFWGPPGVGKTTLARLLAQVSDAHFETISAVLSGVKEIRQAVEVAKQHAAQYGRRTILFVDEVHRFNKSQQDAFLPYVEDGTLIFIGATTENPSFELNNALLSRARVYVLKSLDEAALRKLVGRALNEDKGLGKRKLRLPEESFQVLLAAADGDGRRLLNLLENAADLAEDGSEISPELLQNLLGDTRRRFDKGGEAFYDQISALHKSVRGSNPDAALYWFARMLDGGCDPLYIARRVVRMASEEVGNADPRALGLCLSAWDVQERLGSPEGELAVAQAIVYLACAPKSNAVYSAFNAAMRDVAESGSREVPLHLRNAPTKLMKSLGYGEEYRYAHDEPDAYAAGEDYFPEDLEPRRYYQPVPRGLELKIRDKLEHLAELDRTSPRQREGHHHHHH | soluble |
| MSLDLQEKVRVAAEAVKHADAIVMTAGAGMGVDSGLPDFRGDTGFWKAYPPYQKLGITFVGAANPDHFERDPSFGWGFYGHRTNLYRATVPHAGFDILREWVQRYGLDYFVVTSNVDGQFQKAGFADDRILEVHGSIHHLQCTTPCTMAIWENRETIPVDEATMRAGHVPRCIHCGAVARPNILMFGDYGWVSDRSARQQRNFDEFLADTRGGRLVVVEMGAGTAIPTIRYLTEELGSRSEALAVRINPREPQIRAPHLSLPCGAREGVAAINAVLAEESEGHHHHHH | soluble |
| MSLDPSKVTSMSAVEFTPLPTCLQHRSCDACMSSDLTFNCSWCHVLQRCSSGFDRYRQEWMDYGCAQEAEGRMCEDFQDEGHHHHHH | not soluble |
| MSLDQREILQKFLDEAQSKKITKEEFANEFLKLKRQSTKYKADKTYPTTVAEKPKNIKKNRYKDILPYDYSRVELSLITSDEDSSYINANFIKGVYGPKAYIATQGPLSTTLLDFWRMIWEYSVLIIGMACMEYEMGKKKCERYWAEPVEMQLEFGPFSVSCEAEKRKSDYIIRTLKVKFNSETRTIYQFHYKNWPDHDVPSSIDPILELIWDVRCYQEDDSVPICIHCSAGCGRTGVICAIDYTWMLLKDGIIPENFSVFSLIREMRTQRPSLVQTQEQYELVYNAVLELFKRQMDVIRDKHSGTESQAKEGHHHHHH | soluble |
| MSLDRASHLKMSSEERRAHRDGTVWQLYEWQQRQQFRHGSPTAPICLGSPEFTDQGRSRSMLEVPRSISVPPSPSDIPPPGPPRVFPPRRPHTPAERVTVKPPDQRRSVDISLGDSPRRARGHAVKNSSHVDRRSMPSMGYMTHTVSAPSLHGKSADDTYLQLKKDLEYLDLKMTGRDLLKDRSLKPVKIAESDTDVKLSIFCEQDRVLQDLEDKIRALKENKDQLESVLEVLHRQMEQYRDQPQHLEKIAYQQKLLQEDLVHIRAELSRESTEMENAWNEYLKLENDVEQLKQTLQEQHRRAFFFQEKSQIQKDLWRIEDVTAGLSANKENFRILVESVKNPERKTVPLFPHEGHHHHHH | soluble |
| MSLDRVDRDILRILHAKGRLPVVELAKLVNLTTSPCSERVKRLEKEGYIRGYHADLDPGKLGLDVQVFIHIRLDQSSFSIFERFAHAVADIPEIEACYSLSGDFDTMIKVRVKDMKAYQAFMSGKLGSLPGVIQTRSEFVIEEHKTSFGINPELIYSLPS | not soluble |
| MSLDSGRNGGGPSVFRRDLLRSIGAAGLAGLAGCGGSEGVTDGDGTPAPTPVGNFPVSGDSVTFGFNVASSGAYSTAGKQEIRGFKLAVKHINNGGGWVTSEKYNSPLDGDGLLGKDVEFVVEDTGGSSDTARSNAQRLVDGEEVIMLAGGTSSSAGLANQEVAAQNQVIYMATMANTNSLTGADCNRYSFREMFNNHMAAEALAPALSDEFGKNANYVKIFQDNDWGQTLRDDMDAALGNVGWAPVWDTTAQVGTSDYSQYAADIKSVDFDVIVLGLGGLDAVNALRAFRDEFPESNIVLPMASREIAETAGGAIEGVIGTVAWSRAINSPLSNTFRETFREEYGSSTGSSKSAAPSGAAHIAYTQALQYASAVERAGTFNPIDVIGALEGHEYDAGLGPQTLRACDHQAMRQVPVVRGKSEIQQSYGTYYDLIGEPADVQYACDSGPAANCSLGGSEGHHHHHH | not soluble |
| MSLDTYTTSEVADLIGVHPNTVRLYEELNLIPKPKRNTNGYRIFNDFHIEQFRFARTALKIEVVQRGLRKDALEIVRTSANRDFDKAISLVNQYLQQLEIEKSNAEEALTIVAQILNGNTPETNKLFLTRKETAEHLNEGHHHHHH | not soluble |
| MSLDVLSVSEINAQIKALLEATFLQVRVQGEVSNLTIHKVSGHAYFSLKDSQSVIKCVLFKGNANRLKFALKEGQEVVVFGGISVYVPRGDYQINCFEIEPKDIGSLTLALEQLKEKLRLKGYFDEENKLPKPHFPKRVAVITSQNSAAWADMKKIASKRWPMCELVCINTLMQGEGCVQSVVESIVYADSFHDTKNAFDAIVVARGGGSMEDLYSFNDEKIADALYLAKTFSMSAIGHESDFLLSDLVADLRASTPSNAMEILLPSSDEWLQRLDGFNVKLHRSFKTLLHQKKAHLEHLVASLKRLSFENKHHLNALKLEKLKIALENKTLEFLRFKKTLLEKISTQTLTSPFLQTKTERLNRLENALKLAHANLKLPQFGALVSKNNQAIELEALKRGDKIELSNEKTRASAEILSVDRVEGHHHHHH | soluble |
| MSLEAAPAGSGPLRRTFLVPEIKSLDQYDFSRAKAAASLAWVLRAAFGGAEHVPPELWEPFYTDQYAQEHVKPPVTRLLLSAELYCRAWRQALPQLEPSPSPSALLALLARRGTVPSLPEHPVREADLKHQPILMGAHLAVIDALMVAFSFEWTKTLPGPLALSSLEHKLLFWVDTTVRRLQEKTEQEAAQRASPAAPLDGASPAQPSIRYRKDRAIARRAPCFPNVTTLQDLASGAALAATIHCYCPQLLRLEEVCLKDPMSVADSLYNLQLVQDFCASHLPRGCPLSLEDLLYVPPPLKVNLVVLLAEMYMCFEVLKPDFVQAKDLPDGHAVSPRNTETVPSQNNSGSSSSPSRLPGSRERDWENGSNASSPASVPEYTGPRLYKEPSAKSNKFIIHNALSHCCLAGKVNEPQKNRILEEIEKSKANHFLILFRDSSCQFRALYTLSGETEELSRLAGYGPRTVTPAMVEGIYKYNSDRKRFTQIPAKTMSMSVDAFTIQGHLWQSKKPTTPKKGGGTPKEGHHHHHH | soluble |
| MSLEAKKDMGRCLWELKDEIDHVDRYCHDLAAWDDLHAFIKAPNADFLKINLNADTILDNEVSFICIVDRSGQLLFAEDWDLHRKEKTVLTTLPDSLRSVASLPFSSESDKDDLSNMKRVGIYNSSRGPMMLSSRPIITSNQQGPVQGAVIIGRLLDQGSLDAMMVRVALNFRFIDMSGDELTAKEKKILGELAVEEISIVERENSDNLEVYSHLADIGGRYLIQAEIPKHILQREGHHHHHH | soluble |
| MSLEDSEQIQILQHLISINSVNDHEADVAAYIQQLFADHGITSQVIPYADGRANIIAEIGDTTSDQVFALAGHLDTVATGDVADWKFDPFSAHIVDNQLYGRGAADMKSGLAAMVITLINLADQQTPLTGRLRFIGTVGEENGAMGSRMLTEKGVADDLTAMVIGEPTGGNLVYAHNGSLNYHVYSRGVGAHSSMPEKGINAITNLIKYVTAEATAFDDAPVSPELGPLVHSVTVFNGGEQVNSIPAKAELQGNIRPIPEFDNTAVIHRLHETVDRLNQEPGVDLALHVDYSFKPIISAKDSPLVQTTKAIADQEFGHAIDLQVIHGATDASEFTKSSHDFPVIVYGAGKWDAAHALNESVDLDEFRHVQHVYQQLVEKFLSEGHHHHHH | soluble |
| MSLEGYSVLVLERHYRAGGYAHSFRRRKFIFDSAVRIAAGAMDGGLLEELLQEAGVSQDVEFLHLEDIYTAYYPNRKITVKGSVEGLIEAYCEEFPHECHNIRALVQEMEKLYEVTLMLLHSGDPLKVLSNPLMLKYRDKSFHDLTSSFLQDPQAIHSFAALWAYYGTPPTQGSAMFFAYAIMSYFKEDIYYAKGSFQSLADAFVKRIESLGGEVCLRNEVQRVEVEDRQIKGVHLQTGEYVEAEKVVCNGDFLKLVQHLVGEEHFPARYLKRISKLKPSISAFEVFLGVDLPLEKQGLSHETFIYNDYDYDLFMEKHQSLGEIGASGLSGLAISIPSLVDSSLAPEGMHTAILTTLVPYDIGCDWKEKKEDYQDQLIKMAERAIPNLGRHAVHVESGTPLTMERYTNNSFGSIYGWEQTKNQMTGRPQHETPIKGLYLSGQWTDPGGGIVSAILSGYKLRKKIMKEQVVMEGHHHHHH | not soluble |
| MSLEHFDDKSQLKRNGFYFSYNVDKENIEHWISAILFQVLKDKEDIVILSLGVDTLVGDSLGPLVGSILKRNGIPNVYGTLDRTVNASNIIKILDEIHERFKNPYILVVDAAVTAENNINDIVLRNGGFTPGFGVYRQLPTVGDFSLVGVVNKEDEREHNLIELLKKCRFDEVLKLARIISKILVLTFARMNKGDKEGHHHHHH | not soluble |
| MSLEHILLPLDLSEVSKPLAISVAELASRHKSRVTLLHVIEEAMVIHVAAGYDVSSLIRSIEKNAREKLDKIKKLMMEKGANVVVYEDIPVGNPGTVISEVAEEVGATEIVMGSKGLGIFRILPLGSTVRETVKISRKPVIRLKTYKENGHVKVAYSPMLFRKILVGADRNTSKSMIDYAVNAASTDDGKVILAHIIEPPLEEPSYEVKNVFKYGEKAGEERGVEVEIVVARGRPDKMLTAIASQMDASSVLVGRTVERRLSELILGSTLDRLMTLCELPLIVYPLEGHHHHHH | soluble |
| MSLEKEYEYLVPPDDYLAAGVHIGTQIKTGDMKKFIFKVRQDGLYVLDIRKLDERIRVAAKFLSRYEPSKILLVAARQYAHKPVQMFSKVVGSDYIVGRFIPGTLTNPMLSEYREPEVVFVNDPAIDKQAVSEATAVGIPVVALCDSNNSSADVDLVIPTNNKGRRALAIVYWLLAREIAKIRGQDFTYSIEDFEAELEGGSHHHHHH | soluble |
